Values of other authors in PMC4754043 (Human Molecular Genetics, 2015).

Test system: human transmitochondrial cybrid cells and yeast with mt-tRNA mutations
Details: human cybrids and yeast; ref [9],[10],[11]

B1: mt-ValRS: mt-valyl-tRNA synthetase (protein, UniProt Q5ST30 27-1063, looked up)
Valine--tRNA ligase, …: SVSTQSEPHGSPISRRNREAKQKRLREKQATLEAEIAGESKSPAESIKAWRPKELVLYEIPTKPGEKKDVSGPLPPAYSPRYVEAAWYPWWVREGFFKPEYQARLPQATGETFSMCIPPPNVTGSLHIGHALTVAIQDALVRWHRMRGDQVLWVPGSDHAGIATQAVVEKQLWKERGVRRHELSREAFLREVWQWKEAKGGEICEQLRALGASLDWDRECFTMDVGSSVAVTEAFVRLYKAGLLYRNHQLVNWSCALRSAISDIEVENRPLPGHTQLRLPGCPTPVSFGLLFSVAFPVDGEPDAEVVVGTTRPETLPGDVAVAVHPDDSRYTHLHGRQLRHPLMGQPLPLITDYAVQPHVGTGAVKVTPAHSPADAEMGARHGLSPLNVIAEDGTMTSLCGDWLQGLHRFVAREKIMSVLSEWGLFRGLQNHPMVLPICSRSGDVIEYLLKNQWFVRCQEMGARAAKAVESGALELSPSFHQKNWQHWFSHIGDWCVSRQLWWGHQIPAYLVVEDHAQGEEDCWVVGRSEAEAREVAAELTGRPGAELTLERDPDVLDTWFSSALFPFSALGWPQETPDLARFYPLSLLETGSDLLLFWVGRMVMLGTQLTGQLPFSKVLLHPMVRDRQGRKMSKSLGNVLDPRDIISGVEMQVLQEKLRSGNLDPAELAIVAAAQKKDFPHGIPECGTDALRFTLCSHGVQAGDLHLSVSEVQSCRHFCNKIWNALRFILNALGEKFVPQPAEELSPSSPMDAWILSRLALAAQECERGFLTRELSLVTHALHHFWLHNLCDVYLEAVKPVLWHSPRPLGPPQVLFSCADLGLRLLAPLMPFLAEELWQRLPPRPGCPPAPSISVAPYPSACSLEHWRQPELERRFSRVQEVVQVLRALRATYQLTKARPRVLLQSSEPGDQGLFEAFLEPLGTLGYCGAVGLLPPGAAAPSGWAQAPLSDTAQVYMELQGLVDPQIQLPLLAARRYKLQKQLDSLTARTPSEGEAGTQRQQKLSSLQLELSKLDKAASHLRQLMDEPPAPGSPEL
  rescue of defects due to mutations in non-cognate as well as cognate mt-tRNAs: able to rescue
